The source of these data is PMC7850899, “Nutrient transceptors physically interact with the yeast S6/protein kinase B homolog, Sch9, a TOR kinase target” (Biochemical Journal, 2021).

For experiment [1], the target named is T1, Gap1 peptide 222-236 with S234 replaced by E (substitution scan) (S. cerevisiae, UniProt P19145 222-236, S234E).
T1 construct: source: synthesised on the PEPperCHIP substitution peptide microarray (PEPperPRINT)
T1 peptide (looked up): GVKGYGEAEFVFEFI
The experiment is described as follows: peptide or protein array; PEPperCHIP substitution scan of …, 300 peptides in triplicate; 100 or 500 µg/ml GST-Sch9 or GST, 16 h at 4°C; detected with anti-GST DyLight680. Conditions: both partners purified.

Experiment [2] has as its target T2, Gap1 peptide 222-236 with V232 replaced by E (substitution scan) (S. cerevisiae, UniProt P19145 222-236, 232V replaced by E).
T2 construct: source: synthesised on the PEPperCHIP substitution peptide microarray (PEPperPRINT)
T2 peptide (looked up): GVKGYGEAEFEFSFI
The description is as above. To be noted: both partners purified.

B1: GST-tagged Sch9 (GST-Sch9) (enzyme, S. cerevisiae, UniProt P11792 1-824, looked up)
chain: MMNFFTSKSSNQDTGFSSQHQHPNGQNNGNNNSSTAGNDNGYPCKLVSSGPCASSNNGALFTNFTLQTATPTTAISQDLYAMGTTGITSENALFQMKSMNNGISSVNNNNSNTPTIITTSQEETNAGNVHGDTGGNSLQNSEDDNFSSSSTTKCLLSSTSSLSINQREAAAAAYGPDTDIPRGKLEVTIIEARDLVTRSKDSQPYVVCTFESSEFISNGPESLGAINNNNNNNNNNQHNQNQHINNNNENTNPDAASQHHNNNSGWNGSQLPSIKEHLKKKPLYTHRSSSQLDQLNSCSSVTDPSKRSSNSSSGSSNGPKNDSSHPIWHHKTTFDVLGSHSELDISVYDAAHDHMFLGQVRLYPMIHNLAHASQHQWHSLKPRVIDEVVSGDILIKWTYKQTKKRHYGPQDFEVLRLLGKGTFGQVYQVKKKDTQRIYAMKVLSKKVIVKKNEIAHTIGERNILVTTASKSSPFIVGLKFSFQTPTDLYLVTDYMSGGELFWHLQKEGRFSEDRAKFYIAELVLALEHLHDNDIVYRDLKPENILLDANGNIALCDFGLSKADLKDRTNTFCGTTEYLAPELLLDETGYTKMVDFWSLGVLIFEMCCGWSPFFAENNQKMYQKIAFGKVKFPRDVLSQEGRSFVKGLLNRNPKHRLGAIDDGRELRAHPFFADIDWEALKQKKIPPPFKPHLVSETDTSNFDPEFTTASTSYMNKHQPMMTATPLSPAMQAKFAGFTFVDESAIDEHVNNNRKFLQNSYFMEPGSFIPGNPNLPPDEDVIDDDGDEDINDGFNQEKNMNNSHSQMDFDGDQHMDDEFVSGRFEI
notes: Sch9 protein kinase of yeast, expressed from pGEX-Sch9 (pGEX-4T-1-Sch9); Plasmid from J. Bergsma; also called GST-Sch9p; source: purified from E. coli (peptide microarrays); not shown: GST, N-terminal, kept
With B1, the “fold change of spot intensity against the wild type peptide” value in experiment [1] was greater than 5 fold; in experiment [2], 3 fold.
